Measured values published in patent publication US20220062416A1.

How the values were obtained:
[1] = biological target: PCSK9 antigen (SEQ ID NO: 53), human PCSK9 (human) (UniProt Q8NBP7); assay: flow cytometry, PCSK9 left bound to CHO-LDLR cells (anti-His-FITC), control IgG 0.1 nM
[2] = biological target: PCSK9 antigen (SEQ ID NO: 53), human PCSK9 (human) (UniProt Q8NBP7); assay: flow cytometry, PCSK9 left bound to CHO-LDLR cells (anti-His-FITC), control IgG 1000 nM
[3] = biological target: PCSK9 antigen (SEQ ID NO: 53), human PCSK9 (human) (UniProt Q8NBP7); assay: flow cytometry, PCSK9 left bound to CHO-LDLR cells (anti-His-FITC), control IgG 1 nM
[4] = biological target: PCSK9 antigen (SEQ ID NO: 53), human PCSK9 (human) (UniProt Q8NBP7); assay: flow cytometry, PCSK9 left bound to CHO-LDLR cells (anti-His-FITC), control IgG 100 nM
[5] = biological target: PCSK9 antigen (SEQ ID NO: 53), human PCSK9 (human) (UniProt Q8NBP7); assay: flow cytometry, PCSK9 left bound to CHO-LDLR cells (anti-His-FITC), control IgG 10 nM

A Fluorescence signal value [1] of 7000, a Fluorescence signal value [2] of 8920 and a Fluorescence signal value [3] of 6730 were found for IgG (antibody) in this work. It also gave a Fluorescence signal value [4] of 7520 and a Fluorescence signal value [5] of 6960.
